Test results taken from the supplement of paper PMC10567573.

B1: SPATS1 (parent)
chain: YPEQSKGFHKAGSMLPPVNFSIVP

Variants of: B1
Test: protein stability index of a GFP-peptide fusion (GPS, HEK-293T) (PSI 1-6); higher = more stable
Conditions: c terminus: a fixed tail appended
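Further: lentivirally expressed fusions sorted by FACS into six bins by GFP to DsRed ratio, PSI derived from sequencing read proportions per bin multiplied by bin number.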

Protein stability index: each site, then its substitutions
A11: M 1.84 | D 2.29 | K 2.15 | E 2.78 | T 1.83 | Y 1.74 | Q 2.17 | L 1.55 | P 2.19 | W 1.82 | V 1.67 | G 1.98 | F 2.1 | N 1.81
K10: L 2.88 | A 1.85 | I 1.7 | D 2.54 | S 1.91 | H 1.44 | V 1.76 | W 3.61 | E 2.58 | Q 1.9 | R 2.47 | G 1.52
V18: H 1.95 | S 1.96 | G 2.48 | E 1.81 | W 1.76 | N 2.4 | F 1.73 | Y 1.91 | T 2 | I 1.84 | D 2.26 | P 2.19 | L 1.28 | R 1.62 | K 2.06
F20: L 1.97 | I 1.73 | Q 2.47 | P 2.66 | T 2.24 | R 2.23 | W 1.57 | V 2.88 | Y 2.03 | S 2.14 | E 2.13 | M 1.97 | K 2.19 | H 2.19 | A 2.26 | D 2.39
P17: N 1.9 | V 2.22 | C 1.41 | I 1.75 | S 1.94 | D 1.94 | Q 1.76 | A 2.63 | Y 1.8 | H 2.75 | K 1.59 | M 1.42 | W 2.59 | F 1.58 | E 1.85 | R 1.61 | L 1.62
L15: N 2.02 | R 1.9 | C 2.05 | W 1.47 | E 2.37 | Y 2.42 | H 2.27 | I 1.84 | D 2.29 | A 1.63 | Q 2.47 | F 1.84 | P 2.42 | M 1.8 | G 1.58 | T 2.16
S13: W 2.1 | A 1.68 | V 1.67 | I 1.74 | R 2.15 | F 1.97 | Y 1.78 | Q 1.97 | K 1.95 | G 1.85 | C 1.73 | E 2.24
P2: L 2.29 | K 2.87 | N 2.47 | W 1.45 | V 2.62 | F 1.77 | Q 2.51 | I 1.83 | C 1.62 | S 2.43 | T 1.77 | M 2.48 | R 2.57 | Y 1.91 | G 1.8
Q4: S 1.99 | Y 2.56 | L 1.81 | P 2.16 | C 1.8 | F 3.4 | N 1.89 | E 3.03 | I 1.85 | G 1.89 | K 1.77 | V 2.43 | W 3.72 | R 1.79 | D 2.71
G12: F 1.64 | C 2.75 | M 1.7 | L 2.24 | Y 2.64 | A 1.76 | S 1.84 | I 1.49 | H 1.94 | P 2 | R 2.26 | Q 1.66 | V 1.79 | T 2.04 | W 2.08
P24: A 1.66 | I 3.47 | V 1.46 | D 2.43 | K 2.08 | T 3.33 | N 1.84 | E 2.74 | F 1.83 | G 2.37 | L 3.85 | H 1.53 | C 1.65 | S 1.94 | Q 1.75
G7: N 2.09 | S 1.9 | W 1.7 | A 2.45 | H 1.43 | F 2.12 | T 3.08 | P 1.71 | E 1.63 | Q 1.73 | M 2.2 | R 2.92 | K 2.39
I22: V 1.82 | C 1.76 | M 2.04 | E 2.33 | D 2.47 | K 1.65 | Y 1.75 | F 1.97 | L 2.34 | H 1.75 | N 2.31 | Q 2.26 | T 2.53 | P 2.01
K6: C 2.38 | P 2.17 | M 2.26 | Y 1.93 | S 2.56 | R 1.71 | F 2.1 | N 1.91 | G 2.09 | T 1.92 | A 1.92 | W 1.9 | I 1.86 | L 1.75 | Q 1.71
V23: Q 2.26 | L 1.94 | T 1.74 | A 2.57 | I 2.47 | E 2.42 | M 1.93 | W 1.87 | N 2.35 | S 1.97 | F 1.59 | Y 1.75
H9: Q 2.51 | S 2.4 | G 2.13 | L 1.66 | T 2.16 | C 1.82 | R 2.42 | W 3.39 | Y 2.21 | I 2.38 | D 2.94 | M 2.14 | A 2.1 | V 2.13
N19: V 2.07 | C 1.56 | Q 1.87 | A 2.17 | M 1.75 | F 2.48 | K 1.82 | G 1.74 | Y 2.26 | E 1.91 | D 1.97 | P 1.88
P16: E 1.95 | A 1.95 | Y 1.78 | F 1.98 | N 1.65 | G 1.65 | M 1.52 | V 2.16 | C 1.97 | W 1.96 | T 1.9 | S 1.43 | Q 2.02
S5: G 2.52 | K 2.49 | L 2.15 | F 2.3 | Q 2.55 | H 2.1 | I 2.2 | M 2.37 | D 2.74 | Y 2.1 | R 2.67 | N 1.99 | V 2.45 | T 2.23 | P 2.15 | E 2.69
S21: C 1.79 | P 1.96 | I 2.13 | M 2.06 | L 2.08 | G 1.81 | F 1.6 | D 1.87 | Y 2.6 | N 2.4 | E 1.94 | V 2.24 | H 1.49 | R 1.8
M14: A 2.13 | C 2.25 | E 1.88 | Y 2 | D 1.96 | P 2.07 | T 1.99 | Q 2.08 | L 1.74 | W 1.91 | H 1.87 | F 2.28 | N 2.37 | I 1.83
F8: T 3.18 | P 3.39 | C 2.78 | W 3.05 | E 3.69 | H 3.07 | S 3.57 | K 3.32 | Y 1.97 | M 2.43
E3: P 2.09 | M 2.14 | L 1.9 | H 1.81 | A 1.78 | I 2.12 | D 2.24 | F 2.11 | K 1.8 | S 2 | G 1.82 | W 2.01
Y1: W 2.69 | E 3.8 | F 2.03 | G 3.26 | C 2.95 | I 2.77 | Q 3.43 | L 2.66 | R 3.04 | T 3.22 | D 3.82 | S 3.36 | A 3.35
